How the values were obtained:
[1] = target: T1, Alzheimer's disease tau (ADtau) fibrillar material (human, UniProt P10636-8 2-441, limits assumed, pathological tau with phosphorylation (pS422 detected); sites otherwise not stated); test: native dot blot densitometry, 20 ng per dot, reference recombinant tau
T1 construct: Aggregated, brain-derived material; also called detergent insoluble pathological tau purified from Alzheimer's disease brain tissue; Alzheimer's disease derived tau
Procedure: Shown is a native protein dot blot loaded with equivalent mass of E. coli derived recombinant tau (top row, 20 ng) or Alzheimer's disease derived tau (ADtau) (bottom row, 20 ng). […] C57BL/6 (B6) mouse immunostaining included as controls. Insets depict TRC35 immunoreactivity at higher magnification in the CA1. Scale bar=500 um at low power magnification and 50 μm in the insets.
Characterization of TRC35 monoclonal antibodies. TRC35 monoclonal antibodies were used to dot blot equivalent amounts (20 ng) E. coli-expressed native recombinant tau protein and Alzheimer's disease tau (ADtau) fibrillar material. […] Protein preparations were not denatured prior to blotting to preserve native conformations expected of a conformation dependent monoclonal antibody. Dot blots were performed using the Bio-Dot Microfiltration Apparatus as recommended by the manufacturer (Bio-Rad, catalog #170-6545). Membranes were blocked in blocking solution [20 mM Tris, 500 mM NaCl, 1% bovine serum albumin (w/v) | and probed with TRC35 at 1:50,000 as primary antibody in TTBS buffer [20 mM Tris, 500 mM NaCl, 1% bovine serum albumin (w/v), 0.5% (w/v) Tween20]. Blots were washed 3 times in TTBS to remove excess primary antibody. […] Immunoreactivity was measured using Clarity Western ECL reagents (Bio-Rad) Images were scanned and quantitated using LI-COR Image Studio software.

Peptide_081 = target: T2, Peptide_081; test: peptide microarray
T2 peptide: VQSKIGSLDNITHVP

Peptide_095 = target: T3, Peptide_095; test: peptide microarray
T3 peptide: RHLSNVSSTGSIDMV

Peptide_096 = target: T4, Peptide_096; test: peptide microarray
T4 peptide: NVSSTGSIDMVDSPQ

Peptide_092 = target: T5, Peptide_092; test: peptide microarray
T5 peptide: YKSPVVSGDTSPRHL

Peptide_101 = target: T6, Peptide_101; test: peptide microarray
T6 peptide: TLADEVSASLAKQGL

Peptide_076 = target: T7, Peptide_076; test: peptide microarray
T7 peptide: HKPGGGQVEVKSEKL

Peptide_079 = target: T8, Peptide_079; test: peptide microarray
T8 peptide: EKLDFKDRVQSKIGS

Peptide_084 = target: T9, Peptide_084; test: peptide microarray
T9 peptide: HVPGGGNKKIETHKL

Peptide_089 = target: T10, Peptide_089; test: peptide microarray
T10 peptide: AKAKTDHGAEIVYKS

Peptide_094 = target: T11, Peptide_094; test: peptide microarray
T11 peptide: DTSPRHLSNVSSTGS

Peptide_077 = target: T12, Peptide_077; test: peptide microarray
T12 peptide: GGQVEVKSEKLDFKD

Peptide_086 = target: T13, Peptide_086; test: peptide microarray
T13 peptide: KIETHKLTFRENAKA

Peptide_093 = target: T14, Peptide_093; test: peptide microarray
T14 peptide: VVSGDTSPRHLSNVS

Peptide_083 = target: T15, Peptide_083; test: peptide microarray
T15 peptide: DNITHVPGGGNKKIE

Peptide_090 = target: T16, Peptide_090; test: peptide microarray
T16 peptide: TDHGAEIVYKSPVVS

Peptide_091 = target: T17, Peptide_091; test: peptide microarray
T17 peptide: AEIVYKSPVVSGDTS

Peptide_080 = target: T18, Peptide_080; test: peptide microarray
T18 peptide: FKDRVQSKIGSLDNI

Peptide_087 = target: T19, Peptide_087; test: peptide microarray
T19 peptide: HKLTFRENAKAKTDH

Peptide_075 = target: T20, Peptide_075; test: peptide microarray
T20 peptide: GNIHHKPGGGQVEVK

Peptide_078 = target: T21, Peptide_078; test: peptide microarray
T21 peptide: EVKSEKLDFKDRVQS

Peptide_088 = target: T22, Peptide_088; test: peptide microarray
T22 peptide: FRENAKAKTDHGAEI

Peptide_097 = target: T23, Peptide_097; test: peptide microarray
T23 peptide: TGSIDMVDSPQLATL

Peptide_100 = target: T24, Peptide_100; test: peptide microarray
T24 peptide: ATLADEVSASLAKQG

Peptide_082 = target: T25, Peptide_082; test: peptide microarray
T25 peptide: IGSLDNITHVPGGGN

Peptide_028 = target: T26, Peptide_028; test: peptide microarray
T26 peptide: DDKKAKGADGKTKIA

Peptide_001 = target: T27, Peptide_001; test: peptide microarray
T27 peptide: MAEPRQEFEVMEDHA

Peptide_030 = target: T28, Peptide_030; test: peptide microarray
T28 peptide: DGKTKIATPRGAAPP

Peptide_006 = target: T29, Peptide_006; test: peptide microarray
T29 peptide: GDRKDQGGYTMHQDQ

Peptide_015 = target: T30, Peptide_015; test: peptide microarray
T30 peptide: EEPGSETSDAKSTPT

Peptide_021 = target: T31, Peptide_021; test: peptide microarray
T31 peptide: DTPSLEDEAAGHVTQ

Peptide_016 = target: T32, Peptide_016; test: peptide microarray
T32 peptide: SETSDAKSTPTAEAE

Peptide_014 = target: T33, Peptide_014; test: peptide microarray
T33 peptide: EDGSEEPGSETSDAK

Peptide_003 = target: T34, Peptide_003; test: peptide microarray
T34 peptide: EVMEDHAGTYGLGDR

Peptide_036 = target: T35, Peptide_036; test: peptide microarray
T35 peptide: RIPAKTPPAPKTPPS

Peptide_026 = target: T36, Peptide_026; test: peptide microarray
T36 peptide: KSKDGTGSDDKKAKG

T1 sequence (P10636 other isoform, or with tags, fused parts or gaps limits assumed): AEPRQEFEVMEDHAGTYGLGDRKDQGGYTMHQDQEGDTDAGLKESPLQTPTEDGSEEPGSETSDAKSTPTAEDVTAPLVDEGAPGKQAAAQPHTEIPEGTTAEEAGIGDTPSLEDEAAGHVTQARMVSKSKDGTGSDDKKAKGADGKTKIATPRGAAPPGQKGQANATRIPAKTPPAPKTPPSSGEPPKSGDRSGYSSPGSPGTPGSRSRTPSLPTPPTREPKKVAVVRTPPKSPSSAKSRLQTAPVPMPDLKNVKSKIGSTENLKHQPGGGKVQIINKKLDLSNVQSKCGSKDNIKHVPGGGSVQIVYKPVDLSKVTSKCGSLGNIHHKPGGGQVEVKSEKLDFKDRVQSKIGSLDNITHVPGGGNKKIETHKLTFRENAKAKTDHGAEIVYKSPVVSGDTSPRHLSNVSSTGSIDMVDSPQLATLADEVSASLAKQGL

B1: mAb TRC35 (antibody, V domains shown)
VH: QVQLQQPGTELVKPGASVKLSCKASGYTFTSYWLQWVKQRPGQGLEWIGEIDPSDSYTNYNQKFKGKATLTVDTSSSTAYMQLSSLTSEDSAVYYCATLTGSWGQGTTLAVSS
VL: DVLLTQTPLSLPVSLGDQASISCRASQSIVDSNGNTFLEWYLQKSGQSPKVLIYKVSNRFSGVPDRFSGRGSGTDFTLKISRVEAEDLGVYYCFQGSHVPYTFGGGTKLEIK
notes: Mouse hybridoma monoclonal antibody raised in tau knockout mice against tau/poly(A) RNA complexes; IgG1 isotype, kappa light chain; also called TRC35 monoclonal antibody; hybridoma clone #35
no binding (tested: 1 ug/ml): binding result (Peptide_081) | binding result (Peptide_095) | binding result (Peptide_096) | binding result (Peptide_092) | binding result (Peptide_101) | binding result (Peptide_076) | binding result (Peptide_079) | binding result (Peptide_084) | binding result (Peptide_089) | binding result (Peptide_094) | binding result (Peptide_077) | binding result (Peptide_086) | binding result (Peptide_093) | binding result (Peptide_083) | binding result (Peptide_090) | binding result (Peptide_091) | binding result (Peptide_080) | binding result (Peptide_087) | binding result (Peptide_075) | binding result (Peptide_078) | binding result (Peptide_088) | binding result (Peptide_097) | binding result (Peptide_100) | binding result (Peptide_082) | binding result (Peptide_028) | binding result (Peptide_001) | binding result (Peptide_030) | binding result (Peptide_006) | binding result (Peptide_015) | binding result (Peptide_021) | binding result (Peptide_016) | binding result (Peptide_014) | binding result (Peptide_003) | binding result (Peptide_036) | binding result (Peptide_026)
8 fold: fold selectivity for ADtau over native tau [1]
